The subject of experiment [1] is neural stem cells. In words: BrdU labelling of proliferating cells in infused animals. In kind it is in vivo, mice. The note with it: BrdU also given to the infused animals. (Incorporation of labelled thymidine or its analogues reports DNA synthesis.)
Experiment [2] relates to neural stem cells. In words: Number of EGF-responsive neural stem cells (primary neurospheres) after infusion into the lateral ventricle. In kind it is in vivo, mice. An excerpt: Thus, we infused either CNTF or EPO into the lateral ventricles of adult mice for six days, after which we either removed the entire adult ependyma/subependyma to examine the total number of EGF-responsive NSCs or examined the in vivo production of neuronal precursors. […] Therefore, EGF-responsive NSCs turn over continuously in vivo, a sub-population of which spontaneously differentiates into restricted glial precursors, while another sub-population is directed to the neuronal restricted linage by EPO.
The protocols for neural stem cell culture are described in detail in U.S. Pat. No. 5,750,376 or Shingo et al., 2001. Briefly, embryonic neural stem cells were prepared from E14 medial and lateral ganglionic eminences. Adult neural stem cells were prepared from the subventricular zone of adult mice. The tissue was cultured in basal medium containing 20 ng/ml EGF, or other growth factors as indicated in each case, to form neurospheres. The composition of the basal medium is as follows: DMEM/F12 (1:1); glucose (0.6%); glutamine (2 mM); sodium bicarbonate (3 mM); HEPES (5 mM); insulin (25 μg/ml); transferrin (100 μg/ml); progesterone ([…]); putrescine (60 μM); and selenium chloride (30 nM). […]

Experiment [3] has as its system neural stem cells in the subventricular zone. In words: Subcutaneous administration, number of neural stem cells in the subventricular zone. In kind it is in vivo.
Experiment [4] is described as follows: Forelimb inhibition test in focal ischemic injury (stroke) model. In kind it is in vivo. Conditions: rats with focal ischemic injury; first infusion days 1-7, second infusion days 8-14. An excerpt:
Adult male Long-Evans rats (250-350 g) were obtained from Charles River Breeding Farms and were adapted to the colony for two weeks prior to any treatment. A week before surgery the rats were given a baseline testing on the behavioral tests.
The animals for the stroke study received unilateral devascularization of the sensorimotor cortex. Using Isoflurane anesthesia, the skin was incised and retracted and the overlying fascia were removed from the skull. A skull opening was made at the following coordinates, taking care not to damage the dura: AP +4.0 to −2.0; L 1.5 to 4 (the parasagittal ridge; Kolb et al., 1997). The dura was cut and retracted from the skull opening. A cotton swab soaked in sterile saline was gently rubbed across the exposed pia and the vessels were removed. A hole was then drilled in the contralateral hemisphere to provide an opening for the cannulae attached to the osmotic minipump at AP −0.5; L 1.5. […]
Six days later the animals were assessed using the behavioral test. […]
In normal rats, swimming is accomplished by propulsion from the hind limbs. […] Inhibition of the forelimbs was assessed by filming animals while swimming. […]
The animals then received various test factors, and the effects of these factors on the forelimb inhibition test and brain anatomy were assessed. […]

Experiment [5] has as its system migrating neuronal progenitor cells. In words: Brain anatomical analysis (Cresyl Violet, Doublecortin) in focal ischemic injury (stroke) model. The format is in vivo. Conditions: rats with focal ischemic injury, end of week 6. The source says:
The animals for the stroke study received unilateral devascularization of the sensorimotor cortex. Using Isoflurane anesthesia, the skin was incised and retracted and the overlying fascia were removed from the skull. A skull opening was made at the following coordinates, taking care not to damage the dura: AP +4.0 to −2.0; L 1.5 to 4 (the parasagittal ridge; Kolb et al., 1997). The dura was cut and retracted from the skull opening. A cotton swab soaked in sterile saline was gently rubbed across the exposed pia and the vessels were removed. A hole was then drilled in the contralateral hemisphere to provide an opening for the cannulae attached to the osmotic minipump at AP −0.5; L 1.5. An osmotic minipump was placed under the skin between the shoulder blades and a tube connected under the skin to the cannulae, which was attached to the skull with fast-drying cement. Once hemostasis had been achieved the scalp was sutured closed with 5-O sterile suture. The animals were given a single injection of Banamine (an analgesic) and returned to their home cage. Sham animals received only anesthesia, the bone opening, and the skin was incised and sutured. […] The animals then received various test factors, and the effects of these factors on the forelimb inhibition test and brain anatomy were assessed. […]

Entries after “also recorded” stand apart in the source; their conditions may differ.

B1: CNTF: rat recombinant CNTF, ciliary neurotrophic factor (protein, UniProt P20294 1-200, looked up)
Ciliary neurotrophic factor: MAFAEQTPLTLHRRDLCSRSIWLARKIRSDLTALMESYVKHQGLNKNINLDSVDGVPVASTDRWSEMTEAERLQENLQAYRTFQGMLTKLLEDQRVHFTPTEGDFHQAIHTLMLQVSAFAYQLEELMVLLEQKIPENEADGMPATVGDGGLFEKKLWGLKVLQELSQWTVRSIHDLRVISSHQMGISALESHYGAKDKQM
In the case of B1, in experiment [1], the “number of BrdU positive cells” value is “did not increase”. Further, in experiment [2] (infusion into adult mice for six days), the “increase of the number of primary neurospheres that can be obtained from the brain” value was “about 25%”. The “increase in the number of NSCs” value in experiment [2] (infusion into lateral ventricles of adult mice for six days) was 20-25%.

B2: prolactin: prolactin, first infusion days 1-7, then CSF (Group 3) (protein, UniProt P01236 29-227, looked up)
Prolactin: LPICPGGAARCQVTLRDLFDRAVVLSHYIHNLSSEMFSEFDKRYTHGRGFITKAINSCHTSSLATPEDKEQAQQMNQKDFLSLIVSILRSWNEPLYHLVTEVRGMQEAPEAILSKAVEIEEQTKRLLEGMELIVSQVHPETKENEIYPVWSGLPSLQMADEESRLSAYYNLLHCLRRDSHKIDNYLKLLKCRIIHNNNC
For the molecule B2, the “delivery by subcutaneous administration to modulate the number of neural stem cells in the subventricular zone” value in experiment [3] was “effectively delivered”. Besides, the “forepaw inhibition / motor function in the forelimb inhibition test” value in experiment [4] is “improvement of motor functions; also recorded: acted to correct abnormal positioning of the forelimb during swimming; also recorded: recovery from a representative symptom of stroke; also recorded: improved the motor function”. The “doublecortin staining / doublecortin positive cells in the brain” value in experiment [5] is recorded as “high degree of doublecortin staining”.

Values taken from patent US7604993B2, “Combined regulation of neural cell production” (Stem Cell Therapeutics Inc., priority 2001, dated 2009).
